Test results reported in EP1396498A1, “A pair of polypeptides with specific and strong interaction” (Max-Planck-Gesellschaft zur Förderung der Wissenschaften …, priority 2002, dated 2004).

T1: GST-Dsl1p (Saccharomyces cerevisiae, UniProt P53847)
T1 construct: when introduced into full length GST-Dsl1p; made in house; host or cells: E. coli (BL21DE3 or C41DE3)
T1 sequence (P53847 1-754): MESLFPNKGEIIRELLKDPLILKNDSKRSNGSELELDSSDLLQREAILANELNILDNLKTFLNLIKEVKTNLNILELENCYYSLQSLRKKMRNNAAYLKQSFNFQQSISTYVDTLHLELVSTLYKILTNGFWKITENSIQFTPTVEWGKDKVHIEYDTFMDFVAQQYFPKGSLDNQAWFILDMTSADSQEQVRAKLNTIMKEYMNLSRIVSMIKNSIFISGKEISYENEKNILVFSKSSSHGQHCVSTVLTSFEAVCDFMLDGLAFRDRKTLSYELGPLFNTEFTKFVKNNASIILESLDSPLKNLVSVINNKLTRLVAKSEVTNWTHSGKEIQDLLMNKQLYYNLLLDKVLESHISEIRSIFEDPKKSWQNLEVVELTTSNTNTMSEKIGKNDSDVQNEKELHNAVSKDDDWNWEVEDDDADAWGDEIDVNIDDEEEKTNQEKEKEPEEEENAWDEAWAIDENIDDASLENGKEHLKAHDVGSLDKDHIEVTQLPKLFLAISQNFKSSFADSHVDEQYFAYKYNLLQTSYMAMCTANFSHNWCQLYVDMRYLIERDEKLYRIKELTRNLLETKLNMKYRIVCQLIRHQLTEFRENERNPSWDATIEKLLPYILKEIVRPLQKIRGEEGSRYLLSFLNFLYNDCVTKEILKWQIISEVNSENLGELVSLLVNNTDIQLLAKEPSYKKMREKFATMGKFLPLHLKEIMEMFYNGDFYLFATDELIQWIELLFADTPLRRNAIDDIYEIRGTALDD

T2: GST-Dsl1p (S. cerevisiae (yeast), UniProt P53847 1-754)
T2 construct: Made in E. coli and immobilised on glutathione-Sepharose 4B; also called GST-tagged Dsl1p; full length GST-Dsl1p; not shown: glutathione S-transferase (GST) encoded by pGEX-TT (pGEX-2T with modified polylinker); placement and linker residues not
T2 sequence (looked up): T1 sequence (P53847 1-754)

B1: 13-mer peptide representing residues 242 to 254 of δ-COP, synthesized on a cellulose membrane (peptide)
peptide: RAGHSATGGMKLG
notes: A spot on a peptide array of 13-mers that overlap by 10 residues and span aa 191-302; also called R-type-peptide

Key:
GST-Dsl1p [1] = target: T1, GST-Dsl1p; assay: peptide spot overlay assay: 13-mer δ-COP peptides on cellulose membrane; type: binding; settings: 13-mer peptides spanning amino acids 191-302 of δ-COP; detection with anti-Dsl1p antibodies
From the text: To further delineate the Dsl1p binding domain in δ-COP 13-mer peptides spanning amino acids 191-302 of δ-COP were synthesized on a cellulose membrane (overlap in sequence by 10 amino acids; Jerini; Berlin, Germany) and probed with to GST-Dsl1p. Anti-Dsllp antibodies were used to detect bound GST-Dsl1p. […] We cannot exclude that peptides from position 248 to 270 also bind to Dsl1p since anti-Dsl1 antibody alone gave already a weak signal with peptides derived from this region. […] To this resin we applied crude extract of E. coli cells producing a chimeric protein consisting of GST and the δ-COP binding domain (GST-L4, "WxW"; L4 = D-type-polypeptide; SED ID NO 1 ([…]-NIDDEEEKT)). After washing thoroughly, bound proteins were eluted and analyzed by SDS-PAGE followed by Coomassie staining. […]
To analyze the Ds11p binding region within the Ret2 protein overlapping 13-mer peptides (overlap 10 residues each) spanning the region between residue 191 and 302 were directly synthesized on a cellulose membrane (Jerini; Berlin, Germany). […] After 2 h incubation with purified GST-Ds11p in blocking buffer, the membrane was washed three times with Tris/HCl-buffer and bound GST-Ds11p was detected by using α-Dsl1p antibodies and the ECL detection system (AmershamPharmaciaBiotech).

GST-Dsl1p [2] = target: T2, GST-Dsl1p; assay: peptide spot overlay on cellulose membrane, detected with anti-Dsl1p antibodies

Molecule	signal of bound GST-Dsl1p (GST-Dsl1p [1])	binding result (GST-Dsl1p [2])
R-type-peptide: peptide representing residues 242 to 254 of δ-COP, RAGHSATGGMKLG	strongest signal	
B1		binds
